Among the data in patent US20210122826A1 are MFI normalized to WT, EC50 (read off the curve) and Kd values, retold here.

For one experiment, the target named is Human KLRG1 (human) (UniProt Q96E93). As to the kind of experiment: flow, Jurkat, 100 nM Ab.
For the next experiment, the target named is Human Clec12B (human) (UniProt Q2HXU8). As to the kind of experiment: flow, Jurkat, 100 nM Ab.
A further experiment addresses Human OLR1 (human) (UniProt P78380). As to the kind of experiment: flow, Jurkat, 100 nM Ab.
A further experiment deals with Human KLRF1 (human) (UniProt Q9NZS2). Briefly: flow, Jurkat, 100 nM Ab.
Chain of Human KLRF1 (human) (Q9NZS2 whole entry): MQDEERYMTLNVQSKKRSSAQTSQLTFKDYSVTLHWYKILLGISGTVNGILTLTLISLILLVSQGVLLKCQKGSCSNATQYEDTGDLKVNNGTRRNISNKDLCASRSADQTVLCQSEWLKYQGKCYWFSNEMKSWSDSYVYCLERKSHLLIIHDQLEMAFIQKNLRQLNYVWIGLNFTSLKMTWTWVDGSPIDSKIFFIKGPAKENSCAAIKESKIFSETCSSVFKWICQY
Experiment [1] concerns the target cynomolgus CD161 (cynomolgus). As to the kind of experiment: flow, Jurkat, 100 nM Ab.
The next experiment addresses Human Clec10A (human) (UniProt Q8IUN9). Briefly: flow, Jurkat, 100 nM Ab.
A further experiment has as its target Human Clec4E (human) (UniProt Q9ULY5). Briefly: flow, Jurkat, 100 nM Ab.
The target in the next experiment is Human CD94 (human) (UniProt Q13241). As to the kind of experiment: flow, Jurkat, 100 nM Ab.
Chain of Human CD94 (human) (Q13241 whole entry): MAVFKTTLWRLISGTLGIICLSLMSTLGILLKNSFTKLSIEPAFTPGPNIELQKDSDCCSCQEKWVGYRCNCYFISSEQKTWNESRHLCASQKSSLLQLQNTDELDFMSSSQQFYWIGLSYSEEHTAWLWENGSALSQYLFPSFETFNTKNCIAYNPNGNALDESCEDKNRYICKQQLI
The target in experiment [2] is human CD161 (human) (UniProt Q12918). Briefly: flow, Jurkat, 100 nM Ab.
The target in the next experiment is Human CD209 (human) (UniProt Q9NNX6). Briefly: flow, Jurkat, 100 nM Ab.
Chain of Human CD209 (human) (Q9NNX6 whole entry): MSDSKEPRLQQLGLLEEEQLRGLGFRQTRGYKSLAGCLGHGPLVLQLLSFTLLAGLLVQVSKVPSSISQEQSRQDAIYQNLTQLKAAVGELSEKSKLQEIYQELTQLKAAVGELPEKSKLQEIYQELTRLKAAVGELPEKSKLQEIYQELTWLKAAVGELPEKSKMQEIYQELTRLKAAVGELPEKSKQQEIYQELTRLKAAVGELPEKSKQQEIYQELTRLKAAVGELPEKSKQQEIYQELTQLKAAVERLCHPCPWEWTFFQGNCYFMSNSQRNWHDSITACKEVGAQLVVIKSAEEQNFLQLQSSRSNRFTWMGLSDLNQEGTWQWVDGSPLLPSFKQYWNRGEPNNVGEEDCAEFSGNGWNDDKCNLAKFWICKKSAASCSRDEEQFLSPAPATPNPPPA
In a further experiment the target is Human KLRF2 (human) (UniProt D3W0D1). As to the kind of experiment: flow, Jurkat, 100 nM Ab.
Chain of Human KLRF2 (human) (D3W0D1 whole entry): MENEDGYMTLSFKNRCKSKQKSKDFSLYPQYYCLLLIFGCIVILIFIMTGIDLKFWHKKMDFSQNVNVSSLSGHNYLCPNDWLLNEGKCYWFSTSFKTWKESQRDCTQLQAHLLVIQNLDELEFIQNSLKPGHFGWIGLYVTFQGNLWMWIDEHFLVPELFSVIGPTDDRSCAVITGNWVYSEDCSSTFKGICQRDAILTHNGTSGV
Another experiment addresses Human Clec5A (human) (UniProt Q9NY25). Briefly: flow, Jurkat, 100 nM Ab.
For another experiment, the target named is Human Clec7A (human) (UniProt Q9BXN2). As to the kind of experiment: flow, Jurkat, 100 nM Ab.
Chain of Human Clec7A (human) (Q9BXN2 whole entry): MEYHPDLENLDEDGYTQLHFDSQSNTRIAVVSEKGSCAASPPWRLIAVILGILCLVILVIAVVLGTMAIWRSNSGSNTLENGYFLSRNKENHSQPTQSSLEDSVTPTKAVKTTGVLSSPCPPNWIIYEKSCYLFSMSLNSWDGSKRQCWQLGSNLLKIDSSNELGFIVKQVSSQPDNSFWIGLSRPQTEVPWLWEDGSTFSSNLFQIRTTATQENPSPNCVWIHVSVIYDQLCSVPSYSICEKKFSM
A further experiment concerns the target Human Clec9A (human) (UniProt Q6UXN8). As to the kind of experiment: flow, Jurkat, 100 nM Ab.
Experiment [3] concerns the target cynomolgus CD161 (cynomolgus). Briefly: flow cytometry titration of antibody on Jurkat cynoCD161+ cells, fluorescent secondary antibody, MFI against concentration (log [M]). In general terms: A flow cytometer gives signals particle by particle.
Experiment [4] deals with human CD161 (human) (UniProt Q12918). As to the kind of experiment: flow cytometry titration of antibody on Jurkat hCD161+ cells, fluorescent secondary antibody, MFI against Ab concentration (log [M]).
Experiment [5] deals with cynomolgus CD161 (cynomolgus). As to the kind of experiment: flow, Jurkat, Ab titration.
Chain of cynomolgus CD161 (cynomolgus) (chain, as listed by the source limits assumed): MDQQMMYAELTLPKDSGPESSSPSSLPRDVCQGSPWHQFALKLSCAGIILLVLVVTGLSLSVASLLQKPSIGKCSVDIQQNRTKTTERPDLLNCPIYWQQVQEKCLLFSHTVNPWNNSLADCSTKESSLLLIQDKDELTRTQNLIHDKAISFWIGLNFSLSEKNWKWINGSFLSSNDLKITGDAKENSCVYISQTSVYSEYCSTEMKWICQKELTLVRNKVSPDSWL
For experiment [6], the target named is human CD161 (human) (UniProt Q12918). Briefly: flow, Jurkat, Ab titration.

Chain of Human Clec10A (human) (Q8IUN9 whole entry): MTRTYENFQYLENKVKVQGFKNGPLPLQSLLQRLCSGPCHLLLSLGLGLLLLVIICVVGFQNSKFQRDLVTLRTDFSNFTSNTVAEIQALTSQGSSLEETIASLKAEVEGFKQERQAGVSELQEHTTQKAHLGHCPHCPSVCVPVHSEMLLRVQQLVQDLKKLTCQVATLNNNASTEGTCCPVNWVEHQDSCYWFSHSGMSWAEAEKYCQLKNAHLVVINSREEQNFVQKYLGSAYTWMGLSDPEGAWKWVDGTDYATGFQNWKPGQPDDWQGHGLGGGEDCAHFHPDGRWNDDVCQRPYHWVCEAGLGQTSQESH
Chain of Human Clec12B (human) (Q2HXU8 whole entry): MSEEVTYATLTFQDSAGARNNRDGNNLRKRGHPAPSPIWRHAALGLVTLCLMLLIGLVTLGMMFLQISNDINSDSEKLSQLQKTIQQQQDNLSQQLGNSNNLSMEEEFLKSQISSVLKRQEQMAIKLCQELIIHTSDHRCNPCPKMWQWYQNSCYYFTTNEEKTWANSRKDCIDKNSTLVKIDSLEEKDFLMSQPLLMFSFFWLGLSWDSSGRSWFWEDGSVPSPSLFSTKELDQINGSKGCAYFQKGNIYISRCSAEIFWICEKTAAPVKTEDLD
Chain of Human Clec4E (human) (Q9ULY5 whole entry): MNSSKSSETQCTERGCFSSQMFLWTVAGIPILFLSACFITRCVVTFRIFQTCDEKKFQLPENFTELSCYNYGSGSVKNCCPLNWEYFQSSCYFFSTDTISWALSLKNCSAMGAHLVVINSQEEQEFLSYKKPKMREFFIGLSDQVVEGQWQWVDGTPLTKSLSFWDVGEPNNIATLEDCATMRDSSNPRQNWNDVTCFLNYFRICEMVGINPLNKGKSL
Chain of Human Clec5A (human) (Q9NY25 whole entry): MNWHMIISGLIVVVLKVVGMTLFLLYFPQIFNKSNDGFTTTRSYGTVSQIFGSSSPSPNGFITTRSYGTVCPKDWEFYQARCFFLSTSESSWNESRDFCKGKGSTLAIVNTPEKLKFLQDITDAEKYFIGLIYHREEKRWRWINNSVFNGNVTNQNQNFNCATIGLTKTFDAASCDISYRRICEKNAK
Chain of Human KLRG1 (human) (Q96E93 whole entry): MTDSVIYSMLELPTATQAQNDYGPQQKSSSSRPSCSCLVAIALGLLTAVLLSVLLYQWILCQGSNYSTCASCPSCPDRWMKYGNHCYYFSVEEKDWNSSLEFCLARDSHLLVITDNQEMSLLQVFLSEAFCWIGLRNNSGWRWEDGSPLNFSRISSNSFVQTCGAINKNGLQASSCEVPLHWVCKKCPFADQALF
Chain of Human Clec9A (human) (Q6UXN8 whole entry): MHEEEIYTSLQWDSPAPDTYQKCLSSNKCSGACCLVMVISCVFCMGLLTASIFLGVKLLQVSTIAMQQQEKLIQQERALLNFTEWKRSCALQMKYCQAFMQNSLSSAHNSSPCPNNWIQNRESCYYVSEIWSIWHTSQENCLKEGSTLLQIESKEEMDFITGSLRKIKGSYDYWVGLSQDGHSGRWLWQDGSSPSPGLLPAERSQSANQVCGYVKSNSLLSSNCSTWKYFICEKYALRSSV

One may read the EC50 (read off the curve) as the concentration giving half of the maximal effect. High values mean a need for much substance, low ones an effect from little substance. For orientation: Kd means the constant that tells how readily two partners part at equilibrium. High values mean a looser complex, low ones a tighter complex. On to mouse anti-human CD161 antibody HP-3G10, for which the MFI normalized to WT was 1.07 in the experiment with Human KLRG1 (human); 1.1 with Human Clec12B (human); 1.01 with Human OLR1 (human); 0.94 in the experiment with Human KLRF1 (human); 46.7 in experiment [1]; 1 with Human Clec10A (human). In addition, the MFI normalized to WT with Human Clec4E (human) was determined as 1; in the experiment with Human CD94 (human), 1; with human CD161 (human) [2], 75.2; with Human CD209 (human), 1.01; in the experiment with Human KLRF2 (human) it was 1.07; with Human Clec5A (human) it was 1.08. The values for the MFI normalized to WT with Human Clec7A (human) and with Human Clec9A (human) were 1.16 and 1.09, respectively. Besides, the EC50 (read off the curve) turned out to be 1 nM in experiment [3] and 2 nM with human CD161 (human) [4]. The Kd was determined as 1.18 nM in experiment [5] and 1.67 nM in the experiment with human CD161 (human) [6].
